Kd and IC50 data for 28 sequences are collected here from the Immune Epitope Database (IEDB).

Some results are limits rather than exact numbers.

Test [1] addresses HLA-B*15:01. Kind of test: IEDB peptide-MHC binding, purified MHC/competitive/fluorescence; filed as Kd, often an IC50 or EC50 that approximates it; ≥ and ≤ were set here for values at or beyond the usual limits of such assays.
The target of test [2] is HLA-A*02:01. Described as above.
The target in test [3] is HLA-A*69:01. The description is as above.
The target in a further test is HLA-A*26:01. The description is as above.
For a further test, the target named is HLA-B*57:01. Described as above.
Another test deals with HLA-B*15:17. The test is described as above.
In test [4] the target is HLA-B*18:01. The description is as above.
The target of test [5] is HLA-B*51:01. Described as above.
The next test deals with HLA-B*39:01. The description is as above.
A further test has as its target HLA-B*46:01. Described as above.
For another test, the target named is HLA-B*27:03. The test is described as above. Particulars: source organism: Homo sapiens.
The next test concerns the target HLA-A*02:17. The test is described as follows: IEDB peptide-MHC binding, purified MHC/competitive/radioactivity; filed as Kd, often an IC50 or EC50 that approximates it; ≥ and ≤ were set here for values at or beyond the usual limits of such assays.
In a further test the target is HLA-A*02:03. The description is as above.
Test [6] concerns the target HLA-A*02:01. The test is described as above.
The target in a further test is HLA-A*11:01. The test is described as follows: IEDB peptide-MHC binding, purified MHC/competitive/fluorescence; ≥ and ≤ were set here for values at or beyond the usual limits of such assays.
The target in the next test is HLA-A*24:02. Described as above. Particulars: source organism: Variola virus.
A further test concerns the target HLA-A*30:01. Kind of test: IEDB peptide-MHC binding, purified MHC/competitive/radioactivity; filed as Kd, often an IC50 or EC50 that approximates it; ≥ and ≤ were set here for values at or beyond the usual limits of such assays. Particulars: source organism: Dengue virus 4 Philippines/H241/1956.
For another test, the target named is HLA-B*08:01. Described as above.
Test [7] concerns the target HLA-A*02:01. The test is described as follows: IEDB peptide-MHC binding, purified MHC/competitive/fluorescence; ≥ and ≤ were set here for values at or beyond the usual limits of such assays.
Test [8] has as its target HLA-B*51:01. Kind of test: IEDB peptide-MHC binding, purified MHC/competitive/radioactivity; filed as Kd, often an IC50 or EC50 that approximates it; ≥ and ≤ were set here for values at or beyond the usual limits of such assays. Particulars: source organism: Dengue virus 2 Peru/IQT2913/1996.
The target of the next test is HLA-B*40:01. Kind of test: IEDB peptide-MHC binding, purified MHC/direct/fluorescence; filed as Kd, often an IC50 or EC50 that approximates it; ≥ and ≤ were set here for values at or beyond the usual limits of such assays. Particulars: source organism: Influenza A virus (A/camel/Mongolia/1982(H1N1)).
Test [9] addresses HLA-B*18:01. Described as above. Particulars: source organism: Influenza A virus (A/camel/Mongolia/1982(H1N1)).
The next test addresses HLA-B*44:02. The test is described as above. Particulars: source organism: Influenza A virus (A/camel/Mongolia/1982(H1N1)).
For test [10], the target named is HLA-A*03:01. Kind of test: IEDB peptide-MHC binding, purified MHC/competitive/fluorescence; filed as Kd, often an IC50 or EC50 that approximates it; ≥ and ≤ were set here for values at or beyond the usual limits of such assays.
In another test the target is HLA-A*68:01. The test is described as follows: IEDB peptide-MHC binding, purified MHC/competitive/radioactivity; filed as Kd, often an IC50 or EC50 that approximates it; ≥ and ≤ were set here for values at or beyond the usual limits of such assays. Particulars: source organism: Vaccinia virus WR.
Test [11] addresses HLA-A*03:01. Described as above. Particulars: source organism: Vaccinia virus WR.
For the next test, the target named is HLA-A*31:01. The test is described as above. Particulars: source organism: Vaccinia virus WR.
For another test, the target named is HLA-A*33:01. Described as above. Particulars: source organism: Vaccinia virus WR.
For test [12], the target named is HLA-A*02:01. The test is described as follows: IEDB peptide-MHC binding, purified MHC/direct/fluorescence; filed as Kd, often an IC50 or EC50 that approximates it; ≥ and ≤ were set here for values at or beyond the usual limits of such assays. Particulars: source organism: Ebola virus - Mayinga, Zaire, 1976.
Test [13] has as its target HLA-A*69:01. Described as above. Particulars: source organism: Ebola virus - Mayinga, Zaire, 1976.
The target of the next test is HLA-A*02:12. Described as above. Particulars: source organism: Ravn virus - Ravn, Kenya, 1987.
The target of a further test is HLA-B*27:05. The description is as above. Particulars: source organism: Reston ebolavirus - Reston.
A further test addresses HLA-A*02:06. The test is described as follows: IEDB peptide-MHC binding, purified MHC/competitive/radioactivity; filed as Kd, often an IC50 or EC50 that approximates it; ≥ and ≤ were set here for values at or beyond the usual limits of such assays.
Test [14] concerns the target HLA-B*15:01. The test is described as above. Particulars: source organism: Dengue virus 3 China/80-2/1980.
[15] abbreviates: source organism: Dengue virus 4 Dominica/814669/1981.
Where [16] appears, read: source organism: Dengue virus 4 Philippines/H241/1956.
Setting [17] is: source organism: Sudan ebolavirus.
Where [18] appears, read: source organism: Dengue virus 2 Jamaica/1409/1983.
The mark [19] stands for this setting: source organism: Zaire ebolavirus.
Where [20] appears, read: source organism: Dengue virus 1 Singapore/S275/1990.
Where [21] appears, read: source organism: Vaccinia virus.
Where [22] appears, read: source organism: Dengue virus 2 Thailand/NGS-C/1944.
The mark [23] stands for this setting: source organism: Dengue virus 3 China/80-2/1980.
Setting [24] is: source organism: Reston ebolavirus - Reston (1989).
Setting [25] is: source organism: Dengue virus 1 Brazil/97-11/1997.

The Kd is the free concentration of one partner at which half of the binding sites on the other are occupied at equilibrium, for simple one-to-one binding. For YSDNEMLTH, the dissociation constant Kd with HLA-B*15:01 [1] (source organism: Homo sapiens), in the test with HLA-A*02:01 [2] (source organism: Homo sapiens), with HLA-A*69:01 [3] (source organism: Homo sapiens), with HLA-A*26:01 (source organism: Homo sapiens), in the test with HLA-B*57:01 (source organism: Homo sapiens) and with HLA-B*15:17 (source organism: Homo sapiens) was no less than 20000 nM each time. For the same sequence, the Kd in the test with HLA-B*18:01 [4] (source organism: Homo sapiens), in the test with HLA-B*51:01 [5] (source organism: Homo sapiens), in the test with HLA-B*39:01 (source organism: Homo sapiens), with HLA-B*46:01 (source organism: Homo sapiens) and in the test with HLA-B*27:03 was no less than 20000 nM throughout.

Consider TLATGPILTL, for which the Kd turned out to be 687 nM in the test with HLA-A*02:17 (setting [15]), 12.1 nM with HLA-A*02:03 (setting [15]) and 65.4 nM in the test with HLA-A*02:01 [6] (setting [15]).

ILAKAIFKL: the Kd in the test with HLA-A*02:17 (setting [16]) was 37.9 nM; in the test with HLA-A*02:01 [6] (setting [16]) it was 14 nM.

As usually defined, the IC50 is the concentration needed to halve the response being measured. Low readings indicate higher potency, high ones lower potency. Sequence NCYNLEIKK displayed an IC50 in the test with HLA-A*11:01 (setting [17]) of no less than 72400 nM.

Take VLVGVVTLYL: the dissociation constant Kd with HLA-A*02:17 (setting [18]) was 1570 nM; with HLA-A*02:01 [6] (setting [18]), 62 nM.

For LGLDDQEKK, the IC50 in the test with HLA-A*11:01 (setting [19]) came to 30700 nM.

The sequence TLQVSDVDK registered a concentration for half-maximal inhibition (IC50) in the test with HLA-A*11:01 (setting [19]) of 41900 nM.

For DIIIAVARK, the IC50 in the test with HLA-A*24:02 is 61600 nM; with HLA-A*11:01 (source organism: Variola virus), no less than 177000 nM.

For KMKKKTWLV, the dissociation constant (Kd) in the test with HLA-A*30:01 turned out to be 17.2 nM; with HLA-A*02:17 (setting [16]), 65 nM; in the test with HLA-A*02:03 (setting [16]) it was 31 nM; with HLA-B*08:01 (setting [16]), 93.5 nM; in the test with HLA-A*02:01 [6] (setting [16]) it was 66.6 nM.

For the sequence GLLCVMASSV, the dissociation constant (Kd) in the test with HLA-A*02:17 (setting [20]) came to 151 nM; with HLA-A*02:03 (setting [20]) it was 26 nM; with HLA-A*02:01 [6] (setting [20]) it was 11.4 nM.

As for GVVVSTNRL, the IC50 in the test with HLA-A*02:01 [7] (setting [21]) is 9530 nM; in the test with HLA-A*11:01 (setting [21]) it was no less than 80000 nM.

As to FLFLMSGRGI, the Kd with HLA-A*02:17 (setting [22]) came to 726 nM; with HLA-A*02:03 (source organism: Dengue virus 2 Peru/IQT2913/1996) it was 6.33 nM; in the test with HLA-A*02:01 [6] (setting [22]) it was 4.21 nM; with HLA-B*51:01 [8] it was 7910 nM.

MEYDAVATT: the dissociation constant Kd with HLA-B*40:01 was 706 nM; with HLA-B*18:01 [9], no more than 1 nM; in the test with HLA-B*44:02, no less than 20000 nM.

In the test with HLA-A*03:01 [10] (source organism: Escherichia coli str. K-12 substr. MG1655), KIEAPLLLH yielded a dissociation constant Kd of 116 nM.

Turning to MMMLPATLA, the Kd came to 106 nM with HLA-A*02:17 (setting [23]), 28.6 nM with HLA-A*02:03 (setting [23]) and 27.6 nM in the test with HLA-A*02:01 [6] (setting [23]).

As for ETITEKTFK, the equilibrium dissociation constant (Kd) with HLA-A*68:01 was found to be 12.1 nM; in the test with HLA-A*03:01 [11], 3060 nM; in the test with HLA-A*31:01 it was 823 nM; with HLA-A*33:01, 2.6 nM. In the test with HLA-A*11:01 (source organism: Vaccinia virus Copenhagen), the IC50 was found to be 5570 nM.

With SMPLGVVTN, the half-inhibitory concentration (IC50) in the test with HLA-A*02:01 [7] (setting [17]) is no less than 115000 nM; with HLA-A*11:01 (setting [17]), no less than 163000 nM.

Regarding LLADGLAKA, the Kd stood at 25.7 nM with HLA-A*02:01 [12], 848 nM with HLA-A*69:01 [13] and 4 nM with HLA-A*02:12.

Consider VLMMRTTWA, for which the dissociation constant (Kd) with HLA-A*02:17 (setting [18]) turned out to be 15200 nM; with HLA-A*02:03 (setting [18]) it was 13.5 nM; in the test with HLA-B*08:01 (setting [18]), 12.8 nM; in the test with HLA-A*02:01 [6] (setting [18]), 34.6 nM.

With GRYNLVPPK, the equilibrium dissociation constant (Kd) was 97.6 nM in the test with HLA-B*27:05; no less than 20000 nM in the test with HLA-B*15:01 [1] (setting [24]); no less than 20000 nM in the test with HLA-A*02:01 [2] (setting [24]); no less than 20000 nM with HLA-A*69:01 [3] (setting [24]); no less than 20000 nM with HLA-A*26:01 (setting [24]); no less than 20000 nM with HLA-B*57:01 (setting [24]). Further, the Kd with HLA-B*15:17 (setting [24]), with HLA-B*18:01 [4] (setting [24]), with HLA-B*51:01 [5] (setting [24]), in the test with HLA-B*39:01 (setting [24]) and in the test with HLA-B*46:01 (setting [24]) was no less than 20000 nM in each case.

For the sequence VILAGPIPV, the Kd was determined as 995 nM with HLA-A*02:17 (setting [16]), 132 nM in the test with HLA-A*02:06 (setting [16]) and 6.74 nM with HLA-A*02:01 [6] (setting [16]).

In the case of ALPVYLMTL, the results for the Kd with HLA-A*02:17 (setting [16]) and with HLA-A*02:01 [6] (setting [16]) were 1.77 nM and 10.9 nM, respectively.

Turning to RLCRFRKSK, the Kd in the test with HLA-A*03:01 [10] (source organism: Yersinia pestis Nepal516) came out at 121 nM.

On to LMMMLPATL, for which the Kd with HLA-A*02:17 (setting [23]) came out at 227 nM; with HLA-A*02:03 (setting [23]), 6.62 nM; with HLA-B*15:01 [14], 87.1 nM; with HLA-B*08:01 (setting [23]) it was 18.7 nM.

As for LLMLLPTAL, the Kd is 11.6 nM with HLA-A*02:17 (setting [20]), 31 nM with HLA-A*02:03 (setting [25]), 6.42 nM with HLA-B*08:01 (setting [25]) and 7.54 nM with HLA-A*02:01 [6] (setting [20]).

For the sequence SLCLMMMLPA, the Kd with HLA-A*02:17 (setting [23]) was determined as 11700 nM; in the test with HLA-A*02:01 [6] (setting [23]), 65.7 nM.

For WLVHRQWFL, the Kd with HLA-A*02:17 (setting [18]) came to 61.8 nM; with HLA-B*08:01 (setting [18]), 8.69 nM; in the test with HLA-A*02:06 (setting [18]), 156 nM; with HLA-A*02:01 [6] (setting [18]), 2.4 nM.

With MLLILCTSQI, the dissociation constant Kd with HLA-A*02:17 (setting [20]) is 182 nM; with HLA-A*02:01 [6] (setting [20]), 75.8 nM.
